{
  "source": "the DeepSol protein solubility set",
  "data": [
    {"experiment": "soluble on expression in E. coli; label from the status in PepcDB or PDB records", "values": [
      {"sequence": "MVLQHQFDGLLEVMPENPRKKLRFTSRHIAAVNRYLDDKYFDPKEEKWSNLHPKYRIVLENLIRQTGPRLSPQVTLFLPNTFNGAFAPRQPFGLPSYFYHTCKKAESITQATHAMNQEYTVKMKNLNDQIDAYIYDTHLDILKVTEKRGDYLKNIPHDFGEHPDNPRNGQDNPKIELEHREILWNGLKVVLENGRFYETSTTETNVVEIFLNDELLNDKLYILKAEFFAAFYASEEATQIEVMVLFDNYFMAGGTIQYGEKLVCHLQEIPGTYGTTSFSCSSDFKSMVRKCGLPPIPRIGSPWNSDLMESIAELQQAIIRLENRVYDKDYIGKYTHENGGFIEAYCASLKNLSNTLYLLEEGTIELPAHSKNWTPREKLAYLSNFAPEKEMTSCEIGKPCASFKMIIGLAKSLRKNPYNFSFSGELLAEFSFQIRMAMLSMYLVLERNLPDAPHDNSQFVMTTLSHFRRLYIDNVKKIYQIFPHFPVEMRPVVLDVMCQRATPANYQEILEIYSYEPDMVTKMVQKYPYILLFTPHVTRPPIKLIRDFSEYMEKEMMSSEQAQMSRVDVIVLEENEPDGQESGVDYILARSNKRARVDFEKLDLLLESIMPEEAPARDYRKNTSEGHLAEIFGPTNNEEAEEEPSLPSCSYSTPKRVNRAKPALDSPSGNLRTANKDQVDLLDNVMQRSEKRQWKM", "soluble on expression in E. coli": "not soluble"},
      {"sequence": "MISSKLKLQSLTSKDLSAILELDQACFGGLWTMEGYQRELDSPNSDLLGLFSPSSPIKLLGMGCFWSIVGEAHITILAVHPQYHHQGLGQALLYFLLRTASDRGLERATLEVRASNEAAISLYQKFGFQTAGRRRAYYQDNGEDALILWLPDLQYPQFQETLAHWKTIIQDGLQKYSWSIVNSR", "soluble on expression in E. coli": "soluble"},
      {"sequence": "MLSKRLLNFESFEVMDILALAQKLESEGKKVIHLEIGEPDFNTPKPIVDEGIKSLKEGKTHYTDSRGILELREKISELYKDKYKADIIPDNIIITGGSSLGLFFALSSIIDDGDEVLIQNPCYPCYKNFIRFLGAKPVFCDFTVESLEEALSDKTKAIIINSPSNPLGEVIDREIYEFAYENIPYIISDEIYNGLVYEGKCYSAIEFDENLEKTILINGFSKLYAMTGWRIGYVISNDEIIEAILKLQQNLFISAPTISQYAALKAFEKETEREINSMIKEFDRRRRLVLKYVKDFGWEVNNPIGAYYVFPNIGEDGREFAYKLLKEKFVALTPGIGFGSKGKNYIRISYANSYENIKEGLERIKEFLNK", "soluble on expression in E. coli": "soluble"},
      {"sequence": "MAESDWDTVTVLRKKGPTAAQAKSKQAILAAQRRGEDVETSKKWAAGQNKQHSITKNTAKLDRETEELHHDRVTLEVGKVIQQGRQSKGLTQKDLATKINEKPQVIADYESGRAIPNNQVLGKIERAIGLKLRGKDIGKPIEKGPRAK", "soluble on expression in E. coli": "not soluble"},
      {"sequence": "MSLKSTDIKIVEAKFSTEEVPFRTPLKFGGRVMDSSVLLNVEVIVETRNGKQGIGIGSMPAGNIWAWPSAVVSPEDSLKAMIEFLKEAVEIANICPEVAHPIDLMYHISAEYHFMAKKLSKRLGLAEEIPELAQLVASSPLDAAIHDGFGRANHINSYNGLSAEYMSHDLTEYLDDQFKGEYLDQYTLRDPKPTLPLYHLVGALDPITEADISERVDDGLPETLGEWIKADGLTHLKIKLSGDNMDWDISRVIAVENEAVKAQGERGQDKWVYSLDFNEKCENVDYVLDFLNKIREQTPAAFDRVQYIEQPTNRDLKANPENKMHEAAKIKPVVIDESLVDYESLLLSRELGYSGVALKACKGQTESLFLGAAAQKFDMFLCVQDLTCCGYSFLHSASLAARIPSIAAIEGNGRQYCPGPNKKWKRSYPGMFNITDGTVKTSEGHHHHHH", "soluble on expression in E. coli": "not soluble"},
      {"sequence": "MVTPIAVVGPTASGKSALGIALAHKLDGEVVNVDSMQLYKGMDIGTAKLTVEEREGIAHHQLDVWDVTETASVARFQSDAVADVEDIMSRGKTPILVGGSMLYVQSLVDDWQFPPTDSAVRARFEARLADIGVEALHAELTQLDPEAAAVIESNDPRRTVRALEVIELTGQPFQASQPPKDAPPRWGTRIIGLKTTPEWLNPRIEQRTARMFEQGFVAEVEHLVQQGLIADSTAGRAIGYSQVLAAMAGEMTWEDAFERTVTGTRRYVRRQRSWFNRDHRVSWVDASGDPTAQALEILGLQLEHHHHHH", "soluble on expression in E. coli": "soluble"},
      {"sequence": "MSLDSFLDIQRKKADADSKFIDCNGFRVHYKRYGSGKPPFIVLLHGSFLSIRSWRDVAVPLAENATVLAFDRPAFGLTSRPVPSRSNAARYSPEAQSDLVVALMDKLGMDRAVIVGNSTGGTLALLTALRHPRRVQGLVLVGAMIYSGYANSEVPAVMKPFMKAMSPVFSRLMKVIITKLYDKNIRGFWHVKSRLSDETLAAFRNDFMVGDWSRGFWELFLETHRLYFNRRVSSAWAPSLVVTGEHDLTVKTEESFRLARELPRAELLVIPDCAHLPQEEQPAAFVAGVKKFVEKLVEGHHHHHH", "soluble on expression in E. coli": "soluble"},
      {"sequence": "MKRLEVSNQAKLPTQFGEFYIQCFREKGSNGSKDHLVVFTPNFSQNPLVRLHSECLTGDALGSQKCDCGGALQMALERISKEGGLVIYLRQEGRGIGLFNKVNAYALQDKGYDTIQANEMIGFKDDERDYSVAGEILEYYRIKKMRLLTNNPKKIAALEKYAEVTRESLIVCANEHNQGYLEVKKLKMGHLLLEHHHHHH", "soluble on expression in E. coli": "soluble"},
      {"sequence": "MGSDKIHHHHHHMSRTTVLRSAESDLTLHGRDAMGTLMRTGTLTNFLKVAQQLDFDPQPLLRKLGLTKEMLADPECLIPGSASVTLLKESARLTQCPTFGLRVAERWQLSDLGVISVLLTHQSTLRDAVGTLIQYRHLLNEFLVIRMEDVGRKVIVREELVADEAGTSIQSTELVLGSLSRLCSTLMGATWHPLSVHFTHDPPPDLRLHRRVFGGKLEFASSFNGMICRAADMDFPNPIADPVMARHARRLLEGLPGAKEPSIVLEVRKAIYLLLPLGRATIEQVAQGLGMNVRMLQRQLESAGMVFSDMVNGVRRDLVIHYMDNKSYTLGRIAQSLGYSAYGSFVRWFAAQFGMTPTRWQSLRQQKEDGRSPIQIHC", "soluble on expression in E. coli": "not soluble"},
      {"sequence": "MNVIEVEDVSFRYGNSREYSLRHINLEIRKGEFLGIIGPSGSGKSTFCLTLNGLIPHSIAGEFHGNVIVDGLNTREHSVSELSTKVGLVFQNPDSQLFNMTVLEEVAFALENLGIERDEMWRRIRWALKLVRLWDKREEFPPNLSGGEKQRLAIASVLVMKPKVLVLDEPTSQLDPLGREEVLGLIKLLNKEEKITIILVEHNTDFLLEHADRIVVFDKGRIVLEGKPEDVFENVEFLRTIGVKLPTRVKIGYELKKRGLVERAVLTRDEVVEVLKWAYLRGKS", "soluble on expression in E. coli": "soluble"},
      {"sequence": "MKIAYLGPKGSFSHHVVQTAFPHEELQAFANITDVIKAYEQGLVNYSVVPVENSIEGSVHETLDYLFHQAHIQAVAEIVQPIHQQLMVVPGHTKIEKIFSHPQALAQGKKFIDEQYPEAQIEVTASTAYAARFISEHPDQPFAAVAPRSSAEEYGLELIAEDIQEMEANFTRFWVLGAEKP", "soluble on expression in E. coli": "not soluble"},
      {"sequence": "MDRFKVVVTDYEFQTLAPEQEVLSSLNVEFVATQCRTEEEVISACRDADAIINQYAPISAEVIAQLEKCKIISRYGVGVNTVDVDAATEKGIIVANVTDYSIDEVSDHALALLLSLARKIVKLNHEVKSGTWNFNVGKPIYRLRGRTLGLVGLGRIPQALAKKAQAFGLRVIAYDPYVPAKVADELNVQLLGLNDVFRQSDYISVHAPLTKETKGMISDEQFNLAKKELIIVNTARGPVIDESALIRALQEGKISGAGLDVTECEPIQPDNPLLKMENVVITPHVAWYSEESEKELKRKTAQNVADVLSGYYPTYLVNHNVKEKMRLKEKGLYV", "soluble on expression in E. coli": "soluble"},
      {"sequence": "MLRDLRETDVKAICDINQEALGYTFSPEETASQLARLSQDSHHFLLGYEDAANHVLLGYVHAEVYESLYSKAGFNILALAVSPQAQGQGIGKSLLQGLEEEAKRCGYGFIRLNSANHRLGAHAFYEKVGYTCDKMQKRFIRIC", "soluble on expression in E. coli": "not soluble"},
      {"sequence": "MSLSAQHAAHAQADTITALGAYLTTLAESHGQDEVAQAMCEIATQTLPRSCGELWQLSLDREGWYHGGGWQTGTVLPPQGYTLRATLPRGPTDELRLPLQAHGLTVGEVRAPYEGLESEQEQQLLQTLSTAAAISLSGHLLQRRVRHRNVRDPLTGLFNRRYLEDTLERELHRARRVNAGLVLIRLEVDTLDAFAAEHGSETADRLMQAMADAVHHAFRGSDVCCRAGDDGFGILLPDASLDNGAMRAEAVREELAELRIHQRGRPLGPVTVSAGVAAYPDHSSNRDLLLDAAESAVTRARDEGGDVLRIAELVSPPNPNQGHHHHHH", "soluble on expression in E. coli": "soluble"},
      {"sequence": "MDPELLRQRTAFQKHAATTMAVQNKPTTAPNSHTTYSSEAAKAKKKKSSGPAQNLSKLPDFNNSVSNANALSNATNFSTMAKIVDYMKKRHLNNQQWPLTLQEILDELQIFDLSKRSLAFLQEALPNNPRLIMESEKFAFRPPYKIKGKTSLVAVARKHYQDGKGGILVSDLAECVANYDALLQQVSSEVIVVPTQVNKKKDRVVFYNDKEFTFPELEDDFKALWRHVSVDHLDEKKIEEYLQKKGLDAMKDLTPKVRMQAPLKRKAAKRRFNQKVQNEHMDGVLEDYE", "soluble on expression in E. coli": "soluble"},
      {"sequence": "GIDPFTTARKSTGGKAPRKGGMVVKKRKLATEAGGSDERPKYLPGKHPKNQEKTPHVDYNAPLNPKSELFLDDWHIPKFNRFISFTLDVLIDKYKDIFKDFIKLPSRKFHPQYYYKIQQPMSINEIKSRDYEYEDGPSNFLLDVELLTKNCQAYNEYDSLIVKNSMQVVMLIEFEVLKAKNLKRNYLINSEVKAKLLHYLNKLVDATEKKINQALLGASSPKNLDDKVKLSEPFMELVDKDELPEYYEIVHSPMALSIVKQNLEIGQYSKIYDFIIDMLLVFQNAHIFNDPSALIYKDATTLTNYFNYLIQKEFFPELQDLNERGEINLEFDKFEFENYLAIGGGGPAAAGALAISALDND", "soluble on expression in E. coli": "soluble"},
      {"sequence": "MGSDKIHHHHHHQIPREPITQQPMSAMPPMPPAMQAPGSIYNPGYAGRPLFEDQRPRNVGDILTIVIAENINATKSSGANTNRQGNTSFDVPTAGFLGGLFNKANLSAQGANKFAATGGASAANTFNGTITVTVTNVLPNGNLVVSGEKQMLINQGNEFVRFSGIVNPNTISGQNSVYSTQVADARIEYSAKGYINEAETMGWLQRFFLNIAPW", "soluble on expression in E. coli": "not soluble"},
      {"sequence": "MIIRIVQNIQRINKEGNAPLYISFYLGKEKVVIPCKLSVPTTKFDSKTGMLRGTNKEAKDINLIIERLKAKVNDILVKHRLKNLTLNKEAFMREYNNPSDFKSFHDFVASYMKTYSRRLEIGTFRHHKSCMRKFKEYCEGLQFHELTEDFLRDYLIYMKKTLCNADSTAQRNLSTIKIYVSAAIKKGYMENDPFKDFGVKRIKSNIDYLTEEELIKFISLYYDRRLPERLERTLGFFLFMCFTSLHISDARHVCLEQINNGILTYYRIKNRNCKPEAIKIPLSIPAFKIIEELQGKRKEGH", "soluble on expression in E. coli": "not soluble"},
      {"sequence": "MSSSSSSEDELEKKVTKEQKKKETKSKKRQSEAVEEEKQEVKKAKNEEEVSGRLKDSDGNEMFEIGNLRYATVSKFKGKEYVNIREYYIDRDSQKMMPSRKGISLSKAQWANLKDLIPEIDKKF", "soluble on expression in E. coli": "soluble"},
      {"sequence": "AVTKLVLVRHGESQWNKENRFTGWYDVDLSEKGVSEAKAAGKLLKEEGYSFDFAYTSVLKRAIHTLWNVLDELDQAWLPVEKSWKLNERHYGALQGLNKAETAEKYGDEQVKQWRRGFAVTPPELTKDDERYPGHDPRYAKLSEKELPLTESLALTIDRVIPYWNETILPRMKSGERVIIAAHGNSLRALVKYLDNMSEEEILELNIPTGVPLVYEFDENFKPLKRYYLGNADEIAAKAAAVANQGKAK", "soluble on expression in E. coli": "soluble"}
    ]}
  ]
}
